# Measured values reported in FireProtDB (doi:10.1073/pnas.0910421107).
# Details: Escherichia coli (strain K12), pH 7.6, Thermal, MOPS 25 mM, Potassium chloride 100 mM, whole UniProt chain shown
protein,measurement,setting,value
"Ribose import binding protein RbsB wild type, P02925 (protein) MNMKKLATLVSAVALSATVSANAMAKDTIALVVSTLNNPFFVSLKDGAQKEADKLGYNLVVLDSQNNPAKELANVQDLTVRGTKILLINPTDSDAVGNAVKMANQANIPVITLDRQATKGEVVSHIASDNVLGGKIAGDYIAKKAGEGAKVIELQGIAGTSAARERGEGFQQAVAAHKFNVLASQPADFDRIKGLNVMQNLLTAHPDVQAVFAQNDEMALGALRALQTAGKSDVMVVGFDGTPDGEKAVNDGKLAATIAQLPDQIGAKGVETADKVLKGEKVQAKYPVDLKLVVKQ",Tm,Activity,62.6 °C
same,Tm,Quantitative cysteine reactivity,62.6 °C
